# Assay results from article PMC8164019 (Methods in molecular biology (Clifton, N.J.), 2020).
# Molecular target: the molecule itself
# Assay: negative-stain EM
protein,measurement,value
"MxB after cleavage of the MBP tag by HRV-3C protease (natural protein, human, UniProt P20592 1-715, looked up) MSKAHKPWPYRRRSQFSSRKYLKKEMNSFQQQPPPFGTVPPQMMFPPNWQGAEKDAAFLAKDFNFLTLNNQPPPGNRSQPRAMGPENNLYSQYEQKVRPCIDLIDSLRALGVEQDLALPAIAVIGDQSSGKSSVLEALSGVALPRGSGIVTRCPLVLKLKKQPCEAWAGRISYRNTELELQDPGQVEKEIHKAQNVMAGNGRGISHELISLEITSPEVPDLTIIDLPGITRVAVDNQPRDIGLQIKALIKKYIQRQQTINLVVVPCNVDIATTEALSMAHEVDPEGDRTIGILTKPDLMDRGTEKSVMNVVRNLTYPLKKGYMIVKCRGQQEITNRLSLAEATKKEITFFQTHPYFRVLLEEGSATVPRLAERLTTELIMHIQKSLPLLEGQIRESHQKATEELRRCGADIPSQEADKMFFLIEKIKMFNQDIEKLVEGEEVVRENETRLYNKIREDFKNWVGILATNTQKVKNIIHEEVEKYEKQYRGKELLGFVNYKTFEIIVHQYIQQLVEPALSMLQKAMEIIQQAFINVAKKHFGEFFNLNQTVQSTIEDIKVKHTAKAENMIQLQFRMEQMVFCQDQIYSVVLKKVREEIFNPLGTPSQNMKLNSHFPSNESSVSSFTEIGIHLNAYFLETSKRLANQIPFIIQYFMLRENGDSLQKAMMQILQEKNRYSWLLQEQSETATKRRILKERIYRLTQARHALCQFSSKEIH",binding result,binds
